# Measurements from the supplement of paper PMC10126150.
# ± gives the standard deviation of the averaged measurements.
# Tested on: ATP
# Test: switch fluorescence ratio, 500 uM ATP over buffer (Cy3 cluster intensity, sum of 5 cycles each) (fold (ratio)); higher = stronger signal-on switching upon ATP binding; sequences stand for … in TCGTCGGCAGCGTCAGATGTGTATAAGAGACAGTTTTTTTTTTTTTTTTTTTTTTTTT…TC
# Details: aptamer strand: ATP DNA aptamer (quencher-CACCTGGGGGAGTATTGCGGAGGAAGG + anchor), 100 nM annealed; ATP concentration: 500 uM
# Outline: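 Between each of five buffer/ATP cycles, the flow-cell was stripped with NaOH and re-annealed. Each cycle imaged Cy3-labelled switching-strand clusters, annealed to 100 nM quencher-labelled ATP aptamer on a modified Illumina MiSeq flow-cell, first in selection buffer and then after 15 min with 500 uM ATP at 22 °C. The fluorescence ratio is summed target-cycle over summed buffer-cycle Cy3 intensity per cluster, averaged per switch-domain sequence, with clusters outside 100-1000 RFU excluded.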
# 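Note: ATP exposure 15 min at 22 °C before imaging.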
row,Sequence,switch fluorescence ratio
1,AAGGATGCAT,1.03 ± 0.038
2,GGGGTGGATA,0.996 ± 0.027
3,TGGTGATAGT,0.965 ± 0.035
4,GAAAGCATAT,1.01 ± 0.034
5,ATAGGGTACA,1.11 ± 0.052
6,CTGATTACGC,1.37 ± 0.016
7,TGGGTTTTAT,0.9954 ± 0.0094
8,TCGTCCGGAG,1.55 ± 0.016
9,GAGGCCCATT,1 ± 0.043
10,GTACTCATTT,1 ± 0.038
11,GGGGAGGGGG,0.999 ± 0.044
12,AGGCGATGCG,0.994 ± 0.097
13,CGTGATTGCT,1.03 ± 0.074
14,ATGGGGGGTA,0.986 ± 0.044
15,CAATAATTTG,0.99184 ± 0.00043
16,TTTTTGGCCA,1.01 ± 0.051
17,GCCTTTTCGA,0.9827 ± 0.0025
18,GCTGTAAAGA,0.983 ± 0.029
19,GGGGTATTGG,0.993 ± 0.035
20,TCTGGGCAGC,1.04 ± 0.05
21,TGGGTAGGCT,0.996 ± 0.035
22,TCAATGGTAA,0.97 ± 0.096
23,GCTGGTATTG,1 ± 0.031
24,GATATTTTAA,0.992 ± 0.037
25,AAGATGTAGC,1.006 ± 0.0053
26,GGCTGGGCAG,0.981 ± 0.035

row,Sequence,switch fluorescence ratio
1,AAAGGAGGGG,0.983 ± 0.02
2,TAAATCCGGA,0.995 ± 0.06
3,AAAATATGTT,1 ± 0.023
4,GGGTTATGTT,0.977 ± 0.024
5,TTGGATCAAC,1.04 ± 0.051
6,AGGACGTTTT,0.962 ± 0.01
7,AGTTTTGCCT,0.981 ± 0.032
8,GAGTTGGTAG,0.969 ± 0.021
9,TTGGCATACT,2.64 ± 2.2
10,CTTATCGAAG,0.968 ± 0.015
11,ATCGGGAGGG,1 ± 0.013
12,GGATGACCTA,0.976 ± 0.021
13,TTTGAGATTG,0.99556 ± 0.00097
14,ACTGGGGAGG,1.01 ± 0.022
15,TAACAGGTGG,1.02 ± 0.036
16,GTAATGGGGA,1.02 ± 0.015
17,CGTGTGTACC,1.007 ± 0.0049
18,GCTATGCCTA,0.997 ± 0.023
19,CCCGGGTTGG,1.12 ± 0.08
20,CTAACGAGGG,0.9731 ± 0.0043
21,TTCCTTGGGA,0.984 ± 0.014
22,CAAGGGGCAA,0.964 ± 0.032
23,GCGAGGGAGT,1.02 ± 0.037
24,TATACGGTTT,1.03 ± 0.083
25,AGGCAATATG,1.19 ± 0.018
26,AGTTTTAGCT,0.984 ± 0.029

row,Sequence,switch fluorescence ratio
1,GTTTCTGGAT,0.98 ± 0.032
2,TGGTTGGGGA,0.994 ± 0.036
3,ATGCAGGATT,0.981 ± 0.02
4,AAAAACACTT,1.04 ± 0.022
5,TGAAGTCG,0.999 ± 0.027
6,CGATATTGGC,0.985 ± 0.083
7,TACTTGGGTC,1.06 ± 0.03
8,GTTTAACGGT,1 ± 0.012
9,CAAAATGCTT,0.99 ± 0.047
10,TGATTTTCGG,0.974 ± 0.032
11,GAAGGTGGGC,0.962 ± 0.028
12,CTGGGTTATT,0.977 ± 0.042
13,ATCAGAAGGT,0.995 ± 0.021
14,CCCGATTTTG,1.023 ± 0.0069
15,TTTTTATGCA,1.018 ± 0.0031
16,CTGTCGGGGT,0.982 ± 0.037
17,TTTGGAGTGG,0.998 ± 0.033
18,TTTTTACCGA,1.014 ± 0.0082
19,GGTCGCTACA,1.01 ± 0.026
20,TAACCGATGT,1.01 ± 0.016
21,ATGATAGAGA,1.06 ± 0.021
22,ATGAGTCCGT,1.16 ± 0.017
23,ATTTTCTATG,0.978 ± 0.029
24,GAGGCGGCGG,1.067 ± 0.0051
25,GGGGCGGTCC,1.04 ± 0.043
26,AGGCGCACGG,1.01 ± 0.029

row,Sequence,switch fluorescence ratio
1,GGGCATAGGA,1.03 ± 0.097
2,GCATTATTGG,0.998 ± 0.016
3,GCCATAGCTG,1.007 ± 0.0029
4,CCTGGCGGCT,1.06 ± 0.018
5,GGGTTGGGCT,1 ± 0.03
6,TGGCTGAGAA,0.9723 ± 0.0028
7,GGAGGGGGGT,1.01 ± 0.023
8,AAGCAGGTTA,1.01 ± 0.0062
9,GGGAAAAATT,1.013 ± 0.006
10,CTGGTTTTGT,1.04 ± 0.014
11,GTTGTGTCGG,1.01 ± 0.019
12,CTAATATTAG,1 ± 0.086
13,AGTTTATCAT,0.9996 ± 0.0089
14,AGAGTTGGTG,0.997 ± 0.031
15,CTTAGCGGCC,1.007 ± 0.0038
16,TTGGGCATTT,1.05 ± 0.089
17,CTAAGGAGGG,0.989 ± 0.021
18,GTCATAGATT,0.989 ± 0.011
19,ACGAAGGCTA,1.14 ± 0.028
20,TTTTAGGGGC,1.13 ± 0.23
21,TTATATTAGT,0.9919 ± 0.0056
22,CGAGTTTGGG,1.001 ± 0.0031
23,TGGTGGGTTT,1 ± 0.029
24,TAGTGACACG,1.03 ± 0.045
25,TGGGACTGGG,1.01 ± 0.06
26,CAATATGTGC,1.009 ± 0.004

row,Sequence,switch fluorescence ratio
1,CGAGGGGGGC,1.02 ± 0.092
2,GATATATTTT,0.976 ± 0.01
3,AAAGGGTTGG,1.02 ± 0.02
4,TAAATCTAGA,1.016 ± 0.01
5,ACTGTGTTAT,0.983 ± 0.02
6,TTTGCTGGTA,1.006 ± 0.0064
7,TATACGAAAT,1.49 ± 0.58
8,AGTCGTCTTG,0.977 ± 0.026
9,CGATGTAGTC,1.05 ± 0.022
10,TTTGAGACGT,1.02 ± 0.041
11,ATGTCCGGTT,1 ± 0.019
12,AGGACTTGTG,0.972 ± 0.023
13,TAGGTACCAG,0.984 ± 0.025
14,CGGAGGGAAA,0.963 ± 0.033
15,GGGGGCTTTT,1.01 ± 0.034
16,AGACGGGTAG,0.968 ± 0.032
17,ATTCTGGGGA,0.988 ± 0.026
18,GTATGGGGCG,1.01 ± 0.081
19,TTCCTGAAGG,1.02 ± 0.041
20,AGATATCCGC,1.15 ± 0.05
21,TAGTGCTTGG,0.9827 ± 0.0087
22,ATAACTGTAT,1.122 ± 0.0049
23,TAAAGGGGAT,1.08 ± 0.16
24,CAGGTGGGGT,1.16 ± 0.08
25,TGTGGTTTCC,1.01 ± 0.022
26,TATTTAACTT,1.014 ± 0.005

row,Sequence,switch fluorescence ratio
1,GGTTGAAGTA,0.989 ± 0.047
2,GAGACGGGGG,1.02 ± 0.033
3,AGGGAAAGTC,0.9854 ± 0.0058
4,TAGTTTATTT,1 ± 0.015
5,ATCTTCGGTT,1 ± 0.055
6,CGGGAAGGAG,0.9685 ± 0.0053
7,GCTCCGGGCG,1.13 ± 0.075
8,TTGAGTGACG,0.9845 ± 0.0025
9,GTGTATTGGT,0.983 ± 0.024
10,GCTTTCCCTT,1.022 ± 0.01
11,CCGCGCTGCC,2.71 ± 0.8
12,ATAGTTGCGG,1.047 ± 0.0011
13,TTTGCCCAGA,1.02 ± 0.041
14,TGATGGACGG,1 ± 0.022
15,TGGGGACCGG,1.01 ± 0.027
16,AGGTGGGATT,1.02 ± 0.033
17,TTGATTAAGA,1.06 ± 0.078
18,AATTTTAGTG,0.986 ± 0.02
19,AATGAGTCGG,0.998 ± 0.033
20,AGAATCGAGT,1.01 ± 0.025
21,GGCTGTATTT,0.9965 ± 0.0031
22,ATCAGCCATA,1.03 ± 0.036
23,TACTGGGGCG,0.997 ± 0.082
